According to article PMC11208175:

Substrate: O=P(O)(O)O
Experiment: cells, lysate or membranes
Conditions: whole-cell transport in C. crescentus delta-pstS expressing pitA, 0.1-20 µM phosphate, 37 °C, labelled compound (33P tracer)

B1: PitA (Escherichia coli K-12) (protein)
chain: MLHLFAGLDLHTGLLLLLALAFVLFYEAINGFHDTANAVATVIYTRAMRSQLAVVMAAVFNFLGVLLGGLSVAYAIVHMLPTDLLLNMGSSHGLAMVFSMLLAAIIWNLGTWYFGLPASSSHTLIGAIIGIGLTNALMTGTSVVDALNIPKVLSIFGSLIVSPIVGLVFAGGLIFLLRRYWSGTKKRARIHLTPAEREKKDGKKKPPFWTRIALILSAIGVAFSHGANDGQKGIGLVMLVLIGVAPAGFVVNMNATGYEITRTRDAINNVEAYFEQHPALLKQATGADQLVPAPEAGATQPAEFHCHPSNTINALNRLKGMLTTDVESYDKLSLDQRSQMRRIMLCVSDTIDKVVKMPGVSADDQRLLKKLKSDMLSTIEYAPVWIIMAVALALGIGTMIGWRRVATTIGEKIGKKGMTYAQGMSAQMTAAVSIGLASYTGMPVSTTHVLSSSVAGTMVVDGGGLQRKTVTSILMAWVFTLPAAVLLSGGLYWLSLQFL
Km: 1.9 µM
